Experimental data: US8008547B2, “Glyphosate-N-acetyltransferase (GAT) genes” (E.I. duPont de Nemours, priority 2000, dated 2011)
Positions count from the first letter of the chain named.

B1: SEQ ID NO: 300: GAT polypeptide (protein)
chain: MIEVKPINAEDTYEIRHRILRPNQPLEACMYETDSLGGTFHLGGYYRGKLISIASFNQAEHPELEGQKQYQLRGMATLEGYREQKAGSTLIRHAEELLRKKGADLLWCNARTSASGYYKKLGFSEQGEVYDTPPVGPHILMYKKLT
modifications: 13_6D10
notes: GAT polypeptide
B2: SEQ ID NO: 377: GAT polypeptide (protein)
chain: B1 chain with M30K, S35L, N57H, P62S, Q126H, T132I, V135I
modifications: 4B_6D8
notes: GAT polypeptide
B3: SEQ ID NO: 357: GAT polypeptide (protein)
chain: B1 chain with K5R, S35L, N57H, P62S, V129A, T132I, V135I
modifications: 3B_10C4
notes: GAT polypeptide
B4: SEQ ID NO: 360: GAT polypeptide (protein)
chain: B1 chain with S35L, T39A, N57H, Q58P, P62S, T112I, K119E, T132I, V135I
modifications: 3B_12D10
notes: GAT polypeptide
B5: SEQ ID NO: 268: GAT polypeptide (protein)
chain: B1 chain with S35L, G37R, T39A, N57H, P62S
modifications: CHIMERA
notes: GAT polypeptide
B6: SEQ ID NO: 370: GAT polypeptide (protein)
chain: B1 chain with M30K, S35L, N57H, G80E, K119E, T132I, V135I
modifications: 4B_17A1
notes: GAT polypeptide
B7: SEQ ID NO: 359: GAT polypeptide (protein)
chain: B1 chain with S35L, N57H, P62S, T132I, V135I
modifications: 3B_12B1
notes: GAT polypeptide
B8: SEQ ID NO: 372: GAT polypeptide (protein)
chain: B1 chain with M30K, S35L, N57H, E128G, T132I, V135I, T146A
modifications: 4B_19C8
notes: GAT polypeptide
B9: SEQ ID NO: 358: GAT polypeptide (protein)
chain: B1 chain with S35L, N57H, P62S, E128G, T132I, V135I
modifications: 3B_10G7
notes: GAT polypeptide
B10: SEQ ID NO: 361: GAT polypeptide (protein)
chain: B1 chain with S35L, N57H, P62S, K119E, E125K, T132I, V135I
modifications: 3B_2E5
notes: GAT polypeptide
B11: SEQ ID NO: 380: GAT polypeptide (protein)
chain: B1 chain with S35L, T39A, R47Q, N57H, E60V, P62S, A114V, E128G, T132I, V135I
modifications: 4H1
notes: GAT polypeptide
B12: SEQ ID NO: 369: GAT polypeptide (protein)
chain: B1 chain with M30K, S35L, N57H, P62S, E128G, T132I, V135I
modifications: 4B_16E1
notes: GAT polypeptide
B13: SEQ ID NO: 383: GAT polypeptide (protein)
chain: B1 chain with M30K, S35L, N57H, P62S, E128G, T132I
modifications: 6_16A5
notes: GAT polypeptide
B14: SEQ ID NO: 373: GAT polypeptide (protein)
chain: B1 chain with M30K, S35L, T39A, N57H, A59S, Q84L, T112I, T132I, V135I
modifications: 4B_1G4
notes: GAT polypeptide
B15: SEQ ID NO: 367: GAT polypeptide (protein)
chain: B1 chain with M30K, S35L, N57H, G80E, T112I, K119E, T132I, V135I
modifications: 4B_13E1
notes: GAT polypeptide
B16: SEQ ID NO: 375: GAT polypeptide (protein)
chain: B1 chain with S35L, N57H, P62S, E128G, D131G, T132I, V135I
modifications: 4B_2H7
notes: GAT polypeptide
B17: SEQ ID NO: 384: GAT polypeptide (protein)
chain: B1 chain with S35L, N57H, E60V, P62S, E128G, T132I
modifications: 6_16F5
notes: GAT polypeptide
B18: SEQ ID NO: 365: GAT polypeptide (protein)
chain: B1 chain with S35L, N57H, K119E, T132I, V135I
modifications: 4A_1B11
notes: GAT polypeptide
B19: SEQ ID NO: 362: GAT polypeptide (protein)
chain: B1 chain with S35L, N57H, P62S, T112I, E128G, T132I
modifications: 3C_10H3
notes: GAT polypeptide
B20: SEQ ID NO: 382: GAT polypeptide (protein)
chain: B1 chain with M30K, S35L, N57H, P62S, T132I
modifications: 6_15G7
notes: GAT polypeptide
B21: SEQ ID NO: 381: GAT polypeptide (protein)
chain: B1 chain with S35L, N57H, P62S, Q67H, G80E, E128G, T132I
modifications: 6_14D10
notes: GAT polypeptide
B22: SEQ ID NO: 378: GAT polypeptide (protein)
chain: B1 chain with S35L, N57H, P62S, A114V, T132I, V135I
modifications: 4B_7E8
notes: GAT polypeptide
B23: SEQ ID NO: 267: GAT polypeptide (protein)
chain: B1 chain with M30K, S35L, G37R, T39A, I51V, N57H, E96A, V135A
modifications: 14_2F11
notes: GAT polypeptide
B24: SEQ ID NO: 376: GAT polypeptide (protein)
chain: B1 chain with V4A, M30K, S35L, N57H, P62S, T132I, V135I
modifications: 4B_2H8
notes: GAT polypeptide
B25: SEQ ID NO: 366: GAT polypeptide (protein)
chain: B1 chain with M30K, S35L, N57H, P62S, G80E, T132I, V135I
modifications: 4A_1C2
notes: GAT polypeptide
B26: SEQ ID NO: 379: GAT polypeptide (protein)
chain: B1 chain with S35L, G37R, T39A, N57H, K119E, T132I, V135I
modifications: 4C_8C9
notes: GAT polypeptide
B27: SEQ ID NO: 374: GAT polypeptide (protein)
chain: B1 chain with S35L, N57H, P62S, G80E, T112I, E128G, T132I, V135I
modifications: 4B_21C6
notes: GAT polypeptide
B28: SEQ ID NO: 368: GAT polypeptide (protein)
chain: B1 chain with S35L, N57H, P62S, E128G, T132I, V135I, H138Y
modifications: 4B_13G10
notes: GAT polypeptide
B29: SEQ ID NO: 363: GAT polypeptide (protein)
chain: B1 chain with S35L, N57H, P62S, E83G, K119E, T132I, V135I
modifications: 3C_12H10
notes: GAT polypeptide
B30: SEQ ID NO: 445: GAT polypeptide (protein)
chain: MLEVKPINAEDTYELRHRILRPNQPIEACMYESDLLRGAFHLGGYYRGKLISIASFHQAEHSELQGQKQYQLRGMATLEGYREQKAGSSLIKHAEEILRKRGADLLWCNARTSASGYYKKLGFSEQGEIFETPPVGPHILMYKRIT
modifications: 0_5D3
notes: GAT polypeptide
B31: SEQ ID NO: 457: GAT polypeptide (protein)
chain: B30 chain with R18K, I26L, A28V, S33T, Y45F, I129V, E131D
modifications: 10_4H4
notes: GAT polypeptide
B32: SEQ ID NO: 371: GAT polypeptide (protein)
chain: MIEVNPINAEDTYEIRHRILRPNQPLEACMYETDLLGGTSHLGGYYRGKLISIASFHNAEHSELDGQKQYQLRGMATLEGYREQKAGSTLIRHAEELLRKKGADLLWCNARTSVSGYYEKLGFSEQGEVYDIPPIGPHISMYKKLT
modifications: 4B_18F11
notes: GAT polypeptide
B33: SEQ ID NO: 364: GAT polypeptide (protein)
chain: MIEVKPINAEDTYEIRHRILRPNQPLEACMYETDLLGGTFHLGGYYQDRLISIASFHQAEHSELEGQKQYQLRGMATLEGYREQKAGSTLIRYAEELLRKKGADLLWCNARISASGYYEKLGFSEQGEVYDIPPIGPHILMYKKLT
modifications: 3C_9H8
notes: GAT polypeptide

Test: Standard protocol for determination of kcat and KM (continuous spectrophotometric assay, Acetyl CoA hydrolysis at 235 nm)
Format: biochemical
Settings: purified protein; about 23° C.; 20 mM HEPES pH 6.8, 10% ethylene glycol, 0.2 mM acetyl CoA
Protocol: KM was calculated from the initial reaction rates obtained from concentrations of glyphosate ranging from 0.125 to 10 mM, using the Lineweaver-Burke transformation of the Michaelis-Menten equation. kcat/KM was determined by dividing the value determined for kcat by the value determined for KM.
Using this methodology, kinetic parameters for a number of GAT polypeptides exemplified herein were determined. For example, the kcat, KM and kcat/KM for the GAT polypeptide corresponding to SEQ ID NO:445 have been determined to be 322 min^−1, 0.5 mM and 660 mM^−1 min^−1, respectively, using the assay conditions described above. The kcat, KM and kcat/KM for the GAT polypeptide corresponding to SEQ ID NO:457 have been determined to be 118 min^−1, 0.1 mM and 1184 mM^−1 min^−1, respectively, using the assay conditions described above. The kcat, KM and kcat/KM for the GAT polypeptide corresponding to SEQ ID NO:300 have been determined to be 296 min^−1, 0.65 mM and 456 mM^−1 min^−1, respectively, using the assay conditions described above. One of skill in the art can use these numbers to confirm that a GAT activity assay is generating kinetic parameters for a GAT suitable for comparison with the values given herein. For example, the conditions used to compare the activity of GATs should yield the same kinetic constants for SEQ ID NO: 300, 445 and 457 (within normal experimental variance) as those reported herein, when the conditions are used to compare a test GAT with the GAT polypeptides exemplified herein. Kinetic parameters for a number of GAT polypeptide variants were determined according to this methodology and are provided in Table 3.

| Molecule | Kcat |
| --- | --- |
| B1 | 296.5 min⁻¹ |
| B2 | 22.7 min⁻¹ |
| B3 | 24.8 min⁻¹ |
| B4 | 5.4 min⁻¹ |
| B5 | 155.4 min⁻¹ |
| B6 | 19.1 min⁻¹ |
| B7 | 22.8 min⁻¹ |
| B8 | 15.9 min⁻¹ |
| B9 | 19.6 min⁻¹ |
| B10 | 16.4 min⁻¹ |
| B11 | 1.3 min⁻¹ |
| B12 | 17 min⁻¹ |
| B13 | 43.8 min⁻¹ |
| B14 | 3.7 min⁻¹ |
| B15 | 37.2 min⁻¹ |
| B16 | 27 min⁻¹ |
| B17 | 35.2 min⁻¹ |

| Molecule | Kcat |
| --- | --- |
| B18 | 23.2 min⁻¹ |
| B19 | 33.9 min⁻¹ |
| B20 | 48.4 min⁻¹ |
| B21 | 42.2 min⁻¹ |
| B22 | 20.5 min⁻¹ |
| B23 | 136.9 min⁻¹ |
| B24 | 38.3 min⁻¹ |
| B25 | 20.4 min⁻¹ |
| B26 | 9 min⁻¹ |
| B27 | 11.8 min⁻¹ |
| B28 | 34.9 min⁻¹ |
| B29 | 9.1 min⁻¹ |
| B30 | 322 min⁻¹ |
| B31 | 118.36 min⁻¹ |
| B32 | 14.6 min⁻¹ |
| B33 | 11.7 min⁻¹ |

Same assay, conditions: purified protein; about 23° C.; 20 mM HEPES pH 6.8, 10% ethylene glycol, 0.2 mM acetyl CoA; listed as SEQ ID NO:300

| Molecule | Kcat |
| --- | --- |
| B1 | 296 min⁻¹ |

Same assay, conditions: purified protein; about 23° C.; 20 mM HEPES pH 6.8, 10% ethylene glycol, 0.2 mM acetyl CoA; listed as SEQ ID NO:457

| Molecule | Kcat |
| --- | --- |
| B31 | 118 min⁻¹ |

Same assay, conditions: purified protein; about 23° C.; pH 6.8; 0.2 mM acetyl CoA; glyphosate 0.125 to 10 mM

| Molecule | Km |
| --- | --- |
| B1 | 0.65 mM |
| B2 | 1.5 mM |
| B3 | 1.6 mM |
| B4 | 0.9 mM |
| B5 | 1.3 mM |
| B6 | 1.1 mM |
| B7 | 1.2 mM |
| B8 | 1.2 mM |
| B9 | 1 mM |
| B10 | 1.3 mM |
| B11 | 1.4 mM |
| B12 | 1 mM |
| B13 | 1.1 mM |
| B14 | 1 mM |
| B15 | 2 mM |
| B16 | 6.2 mM |
| B17 | 1 mM |

| Molecule | Km |
| --- | --- |
| B18 | 1.6 mM |
| B19 | 1.1 mM |
| B20 | 1.3 mM |
| B21 | 1.5 mM |
| B22 | 1.2 mM |
| B23 | 1.7 mM |
| B24 | 1.2 mM |
| B25 | 1.2 mM |
| B26 | 0.6 mM |
| B27 | 0.8 mM |
| B28 | 7.6 mM |
| B29 | 1.2 mM |
| B30 | 0.5 mM |
| B31 | 0.1 mM |
| B32 | 1.7 mM |
| B33 | 1 mM |
